# T1: peptide corresponding to the N-terminal domain of CXCR4 (biotinylated (position not given))
# T1 construct: Synthetic peptide (ABclonal), biotinylated and captured on neutravidin-coated plates; also called CXCR4 N-terminal domain; NTD of CXCR4
# T1 peptide: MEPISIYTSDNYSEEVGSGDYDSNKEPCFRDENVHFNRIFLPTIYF
# B1: CXCR4-scFv (scFv)
# scFv: QSVLTQPPSASGTPGQRVTISCSGSSSNIGSNYVYWYQQLPGTAPKLLIYRNNQRPSGVPDRFSGSKSGTSASLAISGLRSEDEGDYYCATWDDSLSGVVFGGGTKLTVLGEGKSSGSGSESKASQVTLKESGAEVKKPGASVKVSCKASGYTFTNFYIHWVRRAPGQGLEWMGIINPSDGRTTYAQKFQGRVTMTRDTSTSTLYMELTSLRSEDTAVYYCGRGGHYSNYFGQPSTWGQGTLVTVSVEASHHHHHH
# modifications: labeled with DyLight 650 (NHS ester) in the cell binding and imaging assays; unlabeled in the ELISA
# notes: also called scFv#c; anti-CXCR4 scFv
# Biological target: T1, peptide corresponding to the N-terminal …
# Assay: ELISA; serially diluted scFv on biotinylated CXCR4 N-terminal peptide captured on neutravidin
# Protocol: The binding affinity of the anti-CXCR4 scFv was assessed with an ELISA. Purified anti-CXCR4 scFvs were serially diluted and added to a 96-well plate that was first coated with neutravidin and then coated with the biotinylated CXCR4 N-terminal peptide domain. Anti-FLAG-HRP conjugate (Sigma Aldrich) served as the primary antibody. 100 μL of Ultra-TMB substrate (Thermo Fisher Scientific) was added to quantify the amount of bound anti-CXCR4 scFv. The reaction was then quenched with 12.5 M H₂SO₄ aqueous solution. Readings were taken using a plate reader with the wavelength set to 450 nm.
binder,measurement,value
B1,Kd,114 nM

# Source: US20220281986A1 (RESEARCH FOUNDATION FOR THE STATE UNIVERSITY OF NEW YORK, published 2022)
